B1: EHEE_rd2_0191 (parent)
chain: TTEYTFTDDEEARRAIEELKKRGLTFRYEKHGTTWRVRVD

Variants of: B1
Assay: folding stability dG (cDNA display proteolysis); higher = more stable
Conditions: PBS, room temperature

Variant | folding stability dG [kcal/mol]
TTIYTFTDDEEARRAIEELKKRGLTFRYEKHGTTWRVRVD [E3I] | 2.52
TTWYTFTDDEEARRAIEELKKRGLTFRYEKHGTTWRVRVD [E3W] | 3.02
TTAYTFTDDEEARRAIEELKKRGLTFRYEKHGTTWRVRVD [E3A] | 1.12
TTSYTFTDDEEARRAIEELKKRGLTFRYEKHGTTWRVRVD [E3S] | 1.55
TTPYTFTDDEEARRAIEELKKRGLTFRYEKHGTTWRVRVD [E3P] | 0.266
TTNYTFTDDEEARRAIEELKKRGLTFRYEKHGTTWRVRVD [E3N] | 1.39
TTLYTFTDDEEARRAIEELKKRGLTFRYEKHGTTWRVRVD [E3L] | 2.25
TTFYTFTDDEEARRAIEELKKRGLTFRYEKHGTTWRVRVD [E3F] | 2.44
TTHYTFTDDEEARRAIEELKKRGLTFRYEKHGTTWRVRVD [E3H] | 1.73
TTYYTFTDDEEARRAIEELKKRGLTFRYEKHGTTWRVRVD [E3Y] | 2.62
TTKYTFTDDEEARRAIEELKKRGLTFRYEKHGTTWRVRVD [E3K] | 0.77
TTCYTFTDDEEARRAIEELKKRGLTFRYEKHGTTWRVRVD [E3C] | 2.81
TTGYTFTDDEEARRAIEELKKRGLTFRYEKHGTTWRVRVD [E3G] | 0.724
TTDYTFTDDEEARRAIEELKKRGLTFRYEKHGTTWRVRVD [E3D] | 1.58
TTRYTFTDDEEARRAIEELKKRGLTFRYEKHGTTWRVRVD [E3R] | 1.12
TTTYTFTDDEEARRAIEELKKRGLTFRYEKHGTTWRVRVD [E3T] | 2.31
TTMYTFTDDEEARRAIEELKKRGLTFRYEKHGTTWRVRVD [E3M] | 2.14
TTQYTFTDDEEARRAIEELKKRGLTFRYEKHGTTWRVRVD [E3Q] | 1.47
TTVYTFTDDEEARRAIEELKKRGLTFRYEKHGTTWRVRVD [E3V] | 2.56
TTEYCFTDDEEARRAIEELKKRGLTFRYEKHGTTWRVRVD [T5C] | 2.33
TTEYAFTDDEEARRAIEELKKRGLTFRYEKHGTTWRVRVD [T5A] | 1.23

Variant | folding stability dG [kcal/mol]
TTEYEFTDDEEARRAIEELKKRGLTFRYEKHGTTWRVRVD [T5E] | 1.79
TTEYIFTDDEEARRAIEELKKRGLTFRYEKHGTTWRVRVD [T5I] | 2.71
TTEYKFTDDEEARRAIEELKKRGLTFRYEKHGTTWRVRVD [T5K] | 1.3
TTEYLFTDDEEARRAIEELKKRGLTFRYEKHGTTWRVRVD [T5L] | 2.25
TTEYGFTDDEEARRAIEELKKRGLTFRYEKHGTTWRVRVD [T5G] | 0.086
TTEYMFTDDEEARRAIEELKKRGLTFRYEKHGTTWRVRVD [T5M] | 1.95
TTEYQFTDDEEARRAIEELKKRGLTFRYEKHGTTWRVRVD [T5Q] | 1.64
TTEYHFTDDEEARRAIEELKKRGLTFRYEKHGTTWRVRVD [T5H] | 1.67
TTEYNFTDDEEARRAIEELKKRGLTFRYEKHGTTWRVRVD [T5N] | 1.36
TTEYFFTDDEEARRAIEELKKRGLTFRYEKHGTTWRVRVD [T5F] | 2.51
TTEYDFTDDEEARRAIEELKKRGLTFRYEKHGTTWRVRVD [T5D] | 0.819
TTEYRFTDDEEARRAIEELKKRGLTFRYEKHGTTWRVRVD [T5R] | 1.64
TYEYTFTDDEEARRAIEELKKRGLTFRYEKHGTTWRVRVD [T2Y] | 2.41
TKEYTFTDDEEARRAIEELKKRGLTFRYEKHGTTWRVRVD [T2K] | 2.01
TGEYTFTDDEEARRAIEELKKRGLTFRYEKHGTTWRVRVD [T2G] | 1.42
TWEYTFTDDEEARRAIEELKKRGLTFRYEKHGTTWRVRVD [T2W] | 2.62
TNEYTFTDDEEARRAIEELKKRGLTFRYEKHGTTWRVRVD [T2N] | 1.58
TMEYTFTDDEEARRAIEELKKRGLTFRYEKHGTTWRVRVD [T2M] | 2.2
TVEYTFTDDEEARRAIEELKKRGLTFRYEKHGTTWRVRVD [T2V] | 2.4
THEYTFTDDEEARRAIEELKKRGLTFRYEKHGTTWRVRVD [T2H] | 2.08
TPEYTFTDDEEARRAIEELKKRGLTFRYEKHGTTWRVRVD [T2P] | 0.931

Variant | folding stability dG [kcal/mol]
TLEYTFTDDEEARRAIEELKKRGLTFRYEKHGTTWRVRVD [T2L] | 2.3
TREYTFTDDEEARRAIEELKKRGLTFRYEKHGTTWRVRVD [T2R] | 2.27
TQEYTFTDDEEARRAIEELKKRGLTFRYEKHGTTWRVRVD [T2Q] | 2
TSEYTFTDDEEARRAIEELKKRGLTFRYEKHGTTWRVRVD [T2S] | 1.68
TIEYTFTDDEEARRAIEELKKRGLTFRYEKHGTTWRVRVD [T2I] | 2.5
TTETTFTDDEEARRAIEELKKRGLTFRYEKHGTTWRVRVD [Y4T] | 0.315
TTEITFTDDEEARRAIEELKKRGLTFRYEKHGTTWRVRVD [Y4I] | 1.44
TTESTFTDDEEARRAIEELKKRGLTFRYEKHGTTWRVRVD [Y4S] | 0.036
TTECTFTDDEEARRAIEELKKRGLTFRYEKHGTTWRVRVD [Y4C] | 2.79
TTEETFTDDEEARRAIEELKKRGLTFRYEKHGTTWRVRVD [Y4E] | -0.036
TTERTFTDDEEARRAIEELKKRGLTFRYEKHGTTWRVRVD [Y4R] | 0.382
TTEFTFTDDEEARRAIEELKKRGLTFRYEKHGTTWRVRVD [Y4F] | 1.99
TTEKTFTDDEEARRAIEELKKRGLTFRYEKHGTTWRVRVD [Y4K] | 0.122
TTEMTFTDDEEARRAIEELKKRGLTFRYEKHGTTWRVRVD [Y4M] | 1.79
TTELTFTDDEEARRAIEELKKRGLTFRYEKHGTTWRVRVD [Y4L] | 1.93
TTEHTFTDDEEARRAIEELKKRGLTFRYEKHGTTWRVRVD [Y4H] | 0.788
TTEWTFTDDEEARRAIEELKKRGLTFRYEKHGTTWRVRVD [Y4W] | 2.22
TTENTFTDDEEARRAIEELKKRGLTFRYEKHGTTWRVRVD [Y4N] | -0.571
TTEVTFTDDEEARRAIEELKKRGLTFRYEKHGTTWRVRVD [Y4V] | 0.805
TTEATFTDDEEARRAIEELKKRGLTFRYEKHGTTWRVRVD [Y4A] | 0.059
TTEQTFTDDEEARRAIEELKKRGLTFRYEKHGTTWRVRVD [Y4Q] | 0.601

From the MegaScale stability set (Tsuboyama et al. 2023)
